From paper PMC4452428 (Biotechnology and bioengineering, 2015) come the findings set out here.

In data set [1] the test system is MHC II alleles DRB1*0101, 0401, 0701, and 1501. To be noted: IC50≥100 μM; average per protein for designs.
A short description of data set [2]: Michaelis-Menten kinetics, colorimetric nitrocefin assay. To be noted: nitrocefin 10 μM to 500 μM, 96-well, triplicate. In kind it is biochemical.

B1: P99 beta-lactamase (protein, UniProt P05364 21-381, looked up)
Beta-lactamase: TPVSEKQLAEVVANTITPLMKAQSVPGMAVAVIYQGKPHYYTFGKADIAANKPVTPQTLFELGSISKTFTGVLGGDAIARGEISLDDAVTRYWPQLTGKQWQGIRMLDLATYTAGGLPLQVPDEVTDNASLLRFYQNWQPQWKPGTTRLYANASIGLFGALAVKPSGMPYEQAMTTRVLKPLKLDHTWINVPKAEEAHYAWGYRDGKAVRVSPGMLDAQAYGVKTNVQDMANWVMANMAPENVADASLKQGIALAQSRYWRIGSMYQGLGWEMLNWPVEANTVVEGSDSKVALAPLPVAEVNPPAPPVKASWVHKTGSTGGFGSYVAFIPEKQIGIVMLANTSYPNPARVEAAYHILEALQ
In the case of B1, the “non-binding peptides out of 36” value in data set [1] was 13/36. For the same molecule, in data set [2] (non-linear regression, biological duplicate), the Km amounted to 80 ± 10 µM. Also, in data set [2] (non-linear regression, enzymes purified and assayed in biological duplicate), the kcat turned out to be 360 ± 20 s⁻¹. In data set [2] (biological duplicate), the kcat/Km is on record as 4.6 ± 0.7 s^−1μM^−1.
